From patent publication US20100136573A1, “DIAGNOSING NEURODEGENERATIVE DISEASES” (priority 2007, published 2010)

Tests used:
[1] = tested on: differentiated M17 neuroblastoma cells; experiment: Toxicity assay (LDH release, activated caspase-3 staining); type: cell-based
Method: M17 neuroblastoma cells, seeded at 2.5×10^3 cells per well in 24-well plates, were grown in Neurobasal A/B27 medium containing Glutamax (Invitrogen) and 10 μM retinoic acid (Sigma) to induce differentiation. Seven days later, cells were transfected with 0.2 μg of expression vector for 72 hours. The medium was collected, and a LDH assay (Promega) was used to measure LDH levels as an indicator of toxicity. Then, cells were fixed, and immunofluorescent staining was done using an antibody against activated caspase-3 (1:250; Cell signaling) and the nuclear marker, bisbenzimide (Hoechst 33258).
(§1) The cultured HEK293 and differentiated M17 cells were fixed with 4% paraformaldehyde in phosphate-buffered saline (PBS) at 4° C. for 15 minutes and permeabilized with PBS-0.5% Triton X-100 for 10 minutes. After blocking with 5% BSA for 1 hour at 37° C., the cells were incubated overnight at 4° C. with mouse monoclonal HA antibody (1:1000, Roche Applied Science), rabbit polyclonal activated caspase-3 antibody (1:250, Cell Signaling), rabbit polyclonal anti-pTDP-43 (which detects phosphorylated S409/S410; 1:1000, COSMO BIO CO., LTD), mouse monoclonal Flag antibody (1:1000, Sigma), rabbit polyclonal M2085 (1:1000), or rabbit polyclonal M2079 (1:1000). After washing, cells were incubated with the Alexa 568-conjugated goat anti-mouse IgG secondary antibody (1:1000, Molecular Probes) or anti-rabbit IgG secondary antibody (1:500, Molecular Probes) at 37° C. for 2 hours. Finally, Hoechst 33258 (1 μg/mL, Invitrogen) was used to stain the nuclei. Images were obtained on a Zeiss LSM 510 META confocal microscope.

[2] = tested on: HEK293 cells; experiment: Inclusion formation and distribution of GFP-TDP-43 constructs, confocal microscopy; type: cell-based; conditions: for cells with compact cytoplasmic inclusions: HEK293, 48 hours after transfection; for cellular distribution / inclusion formation: HEK293, confocal fluorescence microscopy
Method: HEK293 cells, grown on glass coverslips, were transfected with 0.3 μg of expression vector (GFP, GFP-TDP-43, GFP-TDP-43-caspase-resistant, GFP-TDP-35, GFP-TDP-25, or GFP-TDP-ΔNR1) by using Lipofectamine 2000 (Invitrogen) according to the manufacturer's instructions then subjected to immunofluorescence analysis 48 hours later. To determine if the cytoplasmic inclusion were insoluble, some cells were treated with 0.2% Triton X-100 prior to fixation, in order to remove soluble protein. To determine if the formation of inclusion was aggresome-dependent, some cells were treated with 1 μM nocodazole (Sigma) for 24 hours after 6 hours of transfection. Finally, to examine if inclusions were ubiquitinated, cells were cotransfected with 0.3 μg of a TDP-43 construct and 0.5 μg HA-ubiquitin, then subjected to immunofluorescence analysis 72 hours later.
as §1

[3] = tested on: TDP-43 exon 9 skipping activity; experiment: CFTR mini-gene splicing assay; type: cell-based
Method: The CFTR mini-gene splicing assay was conducted as described elsewhere (Pagani et al., J. Biol. Chem., 275(28):21041-21047 (2000) and Ayala et al., FEBS Lett., 580(5):1339-1344 (2006)). In brief, Hela cells were co-transfected with 1 μg of minigene construct and 1 μg of GFP-fusion protein expression vector. […] Then, 2 μg of total RNA was used to synthesize cDNA using the SuperScript III First-Strand Synthesis System (Invitrogen). For the PCR, 2 μL of cDNA was used in a 20 μL of reaction according to the manufacturer's protocol for Taq PCR Core Kit (Qiagen). The amplification conditions consisted of an initial denaturation step at 94° C. for 3 minutes, followed by 30 cycles of 94° C. for 30 seconds, 62° C. for 60 seconds, and 72° C. for 90 seconds.

[4] = molecular target: T1, hnRNPA2 (Homo sapiens, UniProt P22626); experiment: Co-immunoprecipitation with Flag-tagged hnRNPA2; type: binding; conditions: HeLa cells, probing for GFP
T1 construct: expressed in transfected cells; host or cells: HeLa cells
Method: (§2) For co-immunoprecipitation studies, HeLa cells were transfected with 1 or 2 μg of each plasmid. Cells were harvested 48 hours later using Co-IP buffer (50 mM Tris-HCl, pH 7.4, 1 M NaCl, 1% Triton X-100, 5 mM EDTA) containing PMSF as well as protease and phosphatase inhibitors. The lysates were sonicated and centrifuged at 16,000 g for 20 minutes. The protein concentration of supernatants was determined by BCA assay (Thermo Scientific). Supernatant containing 500 μg of total protein was combined with Anti-Flag M2 agarose (Sigma) and incubated overnight at 4° C. with gentle shaking. The agarose was pelleted by centrifugation at 2,500 g for 5 minutes and washed with Co-IP buffer 6 times. Captured protein was eluted from the beads using loading buffer and resolved by SDS-PAGE for Western blot analysis.

[5] = molecular target: T2, Flag-TDP-43 (Homo sapiens, UniProt Q13148); experiment: Co-immunoprecipitation with Flag-TDP-43; type: binding; conditions: HeLa cells, probing for GFP
T2 construct: the exon skipping activity in cells overexpressing full-length TDP-43 was examined; expressed in transfected cells; host or cells: HeLa cells
Method: as §2

[6] = molecular target: T3, Recombinant human GST-TDP43 (Homo sapiens, UniProt Q13148); experiment: In vitro caspase-3 assay; type: biochemical; conditions: 2 units, 2 and 4 hours, Coomassie staining
T3 construct: Full-length or caspase-3-treated recombinant GST-TDP43 (0.5 μg) was separated by 10% SDS-PAGE
Method: Recombinant human GST-TDP43 (2 μg) was incubated with active human recombinant caspase-3 (2 units, CHEMICON International, Inc., Temecula, Calif.) in reaction buffer containing 100 mM NaCl, 50 mM HEPES, 10 mM DTT, 1 mM EDTA, 10% glycerol, 0.1% CHAPS, pH 7.4) at 37° C. for 2 hours or 4 hours, respectively. Cleavage reactions were terminated by addition of 2×SDS loading buffer. Full-length or caspase-3-treated recombinant GST-TDP43 (0.5 μg) was separated by 10% SDS-PAGE and stained with Coomassie blue.

[7] = medium collected 72 hours after transfection

T3 sequence (Q13148 whole entry): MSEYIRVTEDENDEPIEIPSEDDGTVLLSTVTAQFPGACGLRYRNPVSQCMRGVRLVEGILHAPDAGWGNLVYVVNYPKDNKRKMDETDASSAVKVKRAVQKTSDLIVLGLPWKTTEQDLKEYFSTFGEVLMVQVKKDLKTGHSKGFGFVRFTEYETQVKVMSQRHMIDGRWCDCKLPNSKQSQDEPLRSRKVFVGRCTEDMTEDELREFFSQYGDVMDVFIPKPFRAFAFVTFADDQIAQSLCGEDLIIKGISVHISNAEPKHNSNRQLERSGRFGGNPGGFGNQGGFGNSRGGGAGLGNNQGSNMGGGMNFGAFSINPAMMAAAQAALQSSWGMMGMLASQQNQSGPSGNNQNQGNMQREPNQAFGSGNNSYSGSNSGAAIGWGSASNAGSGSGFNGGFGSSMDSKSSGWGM
T2 sequence (Q13148 whole entry): as above
T1 sequence (P22626 1-341 isoform P22626-2, species assumed): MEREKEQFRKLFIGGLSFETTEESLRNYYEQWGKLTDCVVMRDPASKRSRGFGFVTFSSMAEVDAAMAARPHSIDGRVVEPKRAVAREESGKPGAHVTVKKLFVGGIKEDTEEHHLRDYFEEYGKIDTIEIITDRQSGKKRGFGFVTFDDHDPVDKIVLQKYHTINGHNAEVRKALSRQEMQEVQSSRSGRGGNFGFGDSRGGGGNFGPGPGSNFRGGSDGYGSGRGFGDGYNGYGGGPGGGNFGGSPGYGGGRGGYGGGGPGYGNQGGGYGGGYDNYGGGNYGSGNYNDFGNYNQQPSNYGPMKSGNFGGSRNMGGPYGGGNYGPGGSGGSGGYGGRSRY

Molecule | LDH release compared to cells transfected with full-length or caspase-resistant TDP-43 [1, 7] | cells with compact cytoplasmic inclusions [2] | cellular distribution [2] | inclusion formation [2] | also measured
GFP-TDP-25: GFP-tagged 25 kDa (aa 220-414) C-terminal TDP-43 fragment (protein, left off: large carriers, GFP-tagged 25 kDa (aa 220-414) C-terminal TDP-43 fragment) VFIPKPFRAFAFVTFADDQIAQSLCGEDLIIKGISVHISNAEPKHNSNRQLERSGRFGGNPGGFGNQGGFGNSRGGGAGLGNNQGSNMGGGMNFGAFSINPAMMAAAQAALQSSWGMMGMLASQQNQSGPSGNNQNQGNMQREPNQAFGSGNNSYSGSNSGAAIGWGSASNAGSGSGFNGGFGSSMDSKSSGWGM | significantly higher | ~75 % of cells | cytoplasmic and nuclear distribution | – | inclusion-positive cells positive for fragmented nuclei and activated caspase-3 ([1]; quantitative analysis, Hoechst and activated caspase-3 staining): ~50%; nuclear localization of Flag-TDP-43 ([2]; HEK293 co-transfected with Flag-TDP-43): not appreciably altered; CFTR exon 9 exclusion (endogenous TDP-43 background) ([3]; HeLa cells cotransfected with CFTR minigene, RT-PCR, compared to GFP): did not differ; exon skipping activity in cells overexpressing Flag-TDP-43 ([3]; cotransfected with CFTR mini-gene and Flag-TDP-43): did not reduce; binding to hnRNPA2 [4]: interact with hnRNPA2; binding to Flag-TDP-43 [5]: only weakly interacted
GFP-TDP-25S409A/S410A: mutant GFP-TDP-25 incapable of being phosphorylated at S409/S410 (protein, left off: large carriers, mutant GFP-TDP-25 incapable of being phosphorylated at S409/S410) VFIPKPFRAFAFVTFADDQIAQSLCGEDLIIKGISVHISNAEPKHNSNRQLERSGRFGGNPGGFGNQGGFGNSRGGGAGLGNNQGSNMGGGMNFGAFSINPAMMAAAQAALQSSWGMMGMLASQQNQSGPSGNNQNQGNMQREPNQAFGSGNNSYSGSNSGAAIGWGSASNAGSGSGFNGGFGSSMDSKAAGWGM | significantly higher | – | – | formed cytoplasmic inclusions | –
GFP-TDP-ΔNR1: GFP-tagged C-terminal fragment (aa 193-414) lacking the N-terminus and the RRMI (protein, UniProt Q13148 193-414, looked up, fragment, GFP tag, GFP-tagged C-terminal fragment (aa 193-414) lacking the N-terminus and the RRMI) VFVGRCTEDMTEDELREFFSQYGDVMDVFIPKPFRAFAFVTFADDQIAQSLCGEDLIIKGISVHISNAEPKHNSNRQLERSGRFGGNPGGFGNQGGFGNSRGGGAGLGNNQGSNMGGGMNFGAFSINPAMMAAAQAALQSSWGMMGMLASQQNQSGPSGNNQNQGNMQREPNQAFGSGNNSYSGSNSGAAIGWGSASNAGSGSGFNGGFGSSMDSKSSGWGM | – | – | diffuse cytoplasmic and nuclear immunoreactivity | no detectable inclusions | LDH levels compared to cells expressing only GFP [1, 7]: no different
caspase-3: active human recombinant caspase-3 (CHEMICON) (protein) SGISLDNSYKMDYPEMGLCIIINNKNFHKSTGMTSRSGTDVDAANLRETFRNLKYEVRNKNDLTREEIVELMRDVSKEDHSKRSSFVCVLLSHGEEGIIFGTNGPVDLKKITNFFRGDRCRSLTGKPKLFIIQACRGTELDCGIETDSGVDDDMACHKIPVEADFLYAYSTAPGYYSWRNSKDGSWFIQSLCAMLKQYADKLEFMHILTRVNRKVATEFESFSFDATFHAKKQIPCIVSMLTKELYFYH | – | – | – | – | cleavage of recombinant GST-tagged TDP-43 [6]: three distinct fragments of approximately 42, 35, and 25 kD
GFP-TDP-35: GFP-tagged 35 kDa (aa 90-414) C-terminal TDP-43 fragment (protein, UniProt Q13148 90-414, looked up, fragment, GFP tag, GFP-tagged 35 kDa (aa 90-414) C-terminal TDP-43 fragment) ASSAVKVKRAVQKTSDLIVLGLPWKTTEQDLKEYFSTFGEVLMVQVKKDLKTGHSKGFGFVRFTEYETQVKVMSQRHMIDGRWCDCKLPNSKQSQDEPLRSRKVFVGRCTEDMTEDELREFFSQYGDVMDVFIPKPFRAFAFVTFADDQIAQSLCGEDLIIKGISVHISNAEPKHNSNRQLERSGRFGGNPGGFGNQGGFGNSRGGGAGLGNNQGSNMGGGMNFGAFSINPAMMAAAQAALQSSWGMMGMLASQQNQSGPSGNNQNQGNMQREPNQAFGSGNNSYSGSNSGAAIGWGSASNAGSGSGFNGGFGSSMDSKSSGWGM | – | ~25 % of cells | cytoplasmic and nuclear distribution | – | –
